Assay: label from the status in PepcDB records
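Note: failed if final PepcDB status was selected cloned or expressed and not failed if soluble or beyond.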

With “MDTSTNLDIGAQLIVEECPSTYSLTGMPDIKIEHPLDPNSEEGSAQGVAMGMKFILPNRFDMNVCSRFVKSLNEEDSKNIQDQVNSDLEVASVLFKAECNIHTSPSPGIQVRHVYTPSTTKHFSPIKQSTTLTNKHRGNEVSTTPLLANSLSVHQLAAQGEMLYLATRIEQENVINHTDEEGFTPLMWAAAHGQIAVVEFLLQNGADPQLLGKGRESALSLACSKGYTDIVKMLLDCGVDVNEYDWNGGTPLLYAVHGNHVKCVKMLLESGADPTIETDSGYNSMDLAVALGYRSVQQVIESHLLKLLQNIKE” the protein production was “failed”.

For “MDERRFFRDVCAEWMEQYRLTVRESTLEKTQRIINIHVLPAFGDMVINNITPNVCQKVVNKWFLEAKSYKKWLNYASMIFDYALRAEYVGRNPCTLVTMPRVQEQAGEKLEHHHHHH”, the protein production was “failed”.

In the case of “MKTAIVTDSASYLSAADVEKYHIHVVPITVIFGHQTYLENVEITSKEFYERMRTAPELPTTTQITLGQMQTTYDQLAKAGYDAVISIHLSSGITSFITNLESYLPNVTNIKVYPFDSLITAGGEAYMVLLAAKLVTEGYSPEQVIAQLKKIRETTGVYFVVDNLSHLVRTGRLSNASGLVGNLLRIKPVLTFQDGKIVAIQKERTMRRAYAAIKAKLAAEIAAVDYPLRVTIENGNNPKLQAEWTADLKASFPDLTIDEGEIGPVVGVHVGEGVMGLIWARDWEKWTI”, the protein production is reported as “failed”.

For “MSRILITGAAGMVGRALLEELDEHDVFATDLVPPKATGAVTWLPMDVTTDDPDRIVGEVRPQVVIHLASIVTPGVARAVAHRVDVGGTRAVLDACLAHGVRRLVVTSSGAAYGYHADNPMPLRESDPLRGNPEFAYADHKRQVEEILAEARQSAPQLEQVVLRVGTVLGAGTENQITALFRKPRLLAVRGSESPFVFIWTRDLARILARAAGEGPAGIYNVAGDGAMGVSDLARALGKPVLRLPALTLKAALALARPLGLSRYGPEQVRFLQYRPVLANDALKQVFGYVPELASAEVFDLWRREAGL”, the protein production was “failed”.

In the case of “MAEPSQAPTPAPAAQPRPLQSPAPAPTPTPAPSPASAPIPTPTPAPAPAPAAAPAGSTGTGGPGVGSGGAGSGGDPARPGLSQQQRASQRKAQVRGLPRAKKLEKLGVFSACKANETCKCNGWKNPKPPTAPRMDLQQPAANLSELCRSCEHPLADHVSHLENVSEDEINRLLGMVVDVENLFMSVHKEEDTDTKQVYFYLFKLLRKCILQMTRPVVEGSLGSPPFEKPNIEQGVLNFVQYKFSHLAPRERQTMFELSKMFLLCLNYWKLETPAQFRQRSQAEDVATYKVNYTRWLCYCHVPQSCDSLPRYETTHVFGRSLLRSIFTVTRRQLLEKFRVEKDKLVPEKRTLILTHFPKFLSMLEEEIYGANSPIWESGFTMPPSEGTQLVPRPASVSAAVVPSTPIFSPSMGGGSNSSLSLDSAGAEPMPGEKRTLPENLTLEDAKRLRVMGDIPMELVNEVMLTITDPAAMLGPETSLLSANAARDETARLEERRGIIEFHVIGNSLTPKANRRVLLWLVGLQNVFSHQLPRMPKEYIARLVFDPKHKTLALIKDGRVIGGICFRMFPTQGFTEIVFCAVTSNEQVKGYGTHLMNHLKEYHIKHNILYFLTYADEYAIGYFKKQGFSKDIKVPKSRYLGYIKDYEGATLMECELNPRIPYTELSHIIKKQKEIIKKLIERKQAQIRKVYPGLSCFKEGVRQIPVESVPGIRETGWKPLGKEKGKELKDPDQLYTTLKNLLAQIKSHPSAWPFMEPVKKSEAPDYYEVIRFPIDLKTMTERLRSRYYVTRKLFVADLQRVIANCREYNPPDSEYCRCASALEKFFYFKLKEGGLIDK”, the protein production is reported as “failed”.

In the case of “MLKTVKLYARKAWNWLTSMRTALALLFLLAIAAIPGALLPQRSLNESNVIEYIENNGKLAEFYDKIQLFDVFSSTWFTAIYVLLLISLVGCILPRSWEHYKAMRAPVVRAPRNLERLAHNGEGLVEKREEEVEKDARKLLKGWKITEYSAEEDRAGVRSIAAEKGYTRELFNLIFHLGIVGMIVTAGLGRLFYYEGHVIVVTDGEQNQQNSVFCNTATANYDSFRAGANFDGTGLTTFCFEAHDFSADYLANGQAEMFRSNISYAVGDDIQNDPETWEDYELRVNHPLRIEGDRVYLQGHGFAPTFTVTWPNGETRTQTVQWRPDDPTFFLSSGVVRFDPPAGMYPDLYERRQNQLAIQGLFAPTAEWEGDNNELLTSSYPAMRDPAVAIDIYRGDNGLDTGIGQSLFSLDSSLMHSGVLQKIERVNLQIGDTVTLDDGTTVSFDGASEFANYQISRDPTQNWVLVTTVISLVSLVGSLMIRRRRIWVRFYPQENGTTRVETGGLARTDRAGWGGEYEKFHRELLGLKEEDEDEEYFDHDD”, the protein production is reported as “failed”.

With “PDLYNHAIVIGYGRVGSMLAQLLQSRHVPLLVIDDNSEHVLKAHAAGIPAIRGSAAADLVLAEAHPERAKIAVLAIPQPLEAGEILAKLRALNPELTLVARAQNDAEVKHLLGHGADATVVAEHEMAHSLAEMVLSSTNHPNSTRLQPAIA” the protein production was “failed”.

With “MKQLLLGRNALFGLLGAIAVLTVVPVATIMPAYAVDDIEGADAPDLTAVQAKIAAKDYKGALAELRDLAQDNQQADVYNLLGFTLRKTGDVTTALTYYNKALELKPDHKAAREYLGELYVETGDMNKAKEQLASLQKLCPAGCEELSDLQKAIDTKVTQ” the protein production was “failed”.

In the case of “MTDNTRLRIAMQKSGRLSDDSRELLARCGIKINLHTQRLIAMAENMPIDILRVRDDDIPGLVMDGVVDLGIIGENVLEEELLNRRAQGEDPRYFTLRRLDFGGCRLSLATPVDEAWDGPLSLNGKRIATSYPHLLKRYLDQKGISFKSCLLNGSVEVAPRAGLADAICDLVSTGATLEANGLREVEVIYRSKACLIQRDGEMEESKQQLIDKLLTRIQGVIQARESKYIMMHAPTERLDEVIALLPGAERPTILPLAGDQQRVAMHMVSSETLFWETMEKLKALGASSILVLPIEKMME”, the protein production is reported as “not failed”.

For “MEFVLASASPARRRLLQGIGINPIVHVSHFDESQIHHDDPAQLVEALAAAKAKTVAQHRQDALILGCDSVLHVRGEILGKPASPTEAIARWQTMRGHYGLLYTGHALVDQTQNQLLVRHGVTKVYFAAIDDDTIAAYVRSGEPLQCAGCFALEGKGGLFIEKIEGCHSNVIGLSLPLLREMLAHLGYTVQTLWP”, the protein production was “failed”.

With “MKRFNVLKYIRTTKANIQTIAMPLTTKPLSLKINAALFDVDGTIIISQPAIAAFWRDFGKDKPYFDAEHVIHISHGWRTYDAIAKFAPDFADEEYVNKLEGEIPEKYGEHSIEVPGAVKLCNALNALPKEKWAVATSGTRDMAKKWFDILKIKRPEYFITANDVKQGKPHPEPYLKGRNGLGFPINEQDPSKSKVVVFEDAPAGIAAGKAAGCKIVGIATTFDLDFLKEKGCDIIVKNHESIRVGEYNAETDEVELIFDDYLYAKDDLLKW” the protein production was “not failed”.

For “MTDAPATPYAARTPVHEQHLDGFGTVRVLPLDPAADAAVVHGWVGEERAAFWGMNDLTRDQVAAVYAHMDTLDTHHAFLVVKDGEPAALLQTYDPAADRVSECYAAEPGDIGVHLLLAPAGAEGTRPGWTAALSGALMAYVLLGLDRTRIVVDPDVANEKAIARFLKQGFTAGPAVVLPEVDLPDVYLPEKKAQLAFLRREVAFGA”, the protein production was “failed”.

For “MLPARLPFRLLSLFLRGSAPTAARHGLREPLLERRCAAASSFQHSSSLGRELPYDPVDTEGFGEGGDMQERFLFPEYILDPEPQPTREKQLQELQQQQEEEERQRQQRREERRQQNLRARSREHPVVGHPDPALPPSGVNCSGCGAELHCQDAGVPGYLPREKFLRTAEADGGLARTVCQRCWLLSHHRRALRLQVSREQYLELVSAALRRPGPSLVLYMVDLLDLPDALLPDLPALVGPKQLIVLGNKVDLLPQDAPGYRQRLRERLWEDCARAGLLLAPGHQGPQRPVKDEPQDGENPNPPNWSRTVVRDVRLISAKTGYGVEELISALQRSWRYRGDVYLVGATNAGKSTLFNTLLESDYCTAKGSEAIDRATISPWPGTTLNLLKFPICNPTPYRMFKRHQRLKKDSTQAEEDLSEQEQNQLNVLKKHGYVVGRVGRTFLYSEEQKDNIPFEFDADSLAFDMENDPVMGTHKSTKQVELTAQDVKDAHWFYDTPGITKENCILNLLTEKEVNIVLPTQSIVPRTFVLKPGMVLFLGAIGRIDFLQGNQSAWFTVVASNILPVHITSLDRADALYQKHAGHTLLQIPMGGKERMAGFPPLVAEDIMLKEGLGASEAVADIKFSSAGWVSVTPNFKDRLHLRGYTPEGTVLTVRPPLLPYIVNIKGQRIKKSVAYKTKKPPSLMYNVRKKKGKINV”, the protein production was “failed”.

In the case of “MANPLYHKHIISINDLSRDELELVLRTAASLKKTPQPELLKHKVIASCFFEASTRTRLSFETSIHRLGASVVGFSDSSNTSLGKKGETLADTMSVISTYVDAIVMRHPQEGASRLAAQFSGNVPIVNAGDGANQHPTQTLLDLFTIQETQGRLDNINIAMVGDLKYGRTVHSLTQALAKFNGNHFFFIAPDALAMPAYILQMLEEKEIEYSLHESLEEVVPELDILYMTRVQKERLDPSEYANVKAQFILRSSDLTGARDNLKVLHPLPRIDEITTDVDKTPYAYYFQQAGNGIFARQALLALVLNAELAL”, the protein production is reported as “not failed”.

In the case of “ASLLARYPPEKLFQAERNFNAAQDLDVSLLEGDLVGVIKKKDPMGSQNRWLIDNGVTKGFVYSSFLKPYNPRRSHSDAS”, the protein production is reported as “not failed”.

With “MALLLAALLVLLTALLAVRLPAWASALLLGLLAGSGYALGVRSEALPAGALLLLGALAAPRLYLGPRRRKRPERRPPGPKRPAAAGTTAEREALSQRYEILEKVGLGGMATVYKAKDRKTGRLVALKVPQERFLGDPRFVRRFHREAEVLTRMDHPNIVKVYDHGQVEGVHYIAMEFLDGEGLDKLIEERRLSLRQAAAILARVADALKHIHAQGIVHRDIKPGNIMVLKGALREDGVDPRGVRLMDFGIAAGRVLTRLTITGARIGTPVYMSPEQAKGQKLDHRSDIYSLGIVLYEALTGQPPFTGGYETVIHQQIFQMPTPPKQLRPEIPQALSDLVLRMLEKDPAKRPGLDEVVRVLEGPWEEERELPEAQYLLVAVEAKKGAVRLLDLEGTPARLLSGVGSGAGQFPSPPLAVAADPEGGIWVAVFQHGERLVHRLSPQGEVLLSTGPYGMKPGEFLLPVGLAVLEDQVFVLDGETATVSRLDLAGRYQGRFGGQGLGRGTFQDPKALVAAEGHLFVLDYGNRQVQRLTPEGGYLSRYAFRRSREDGALRLLGGVGVGEGRLYLYDVEAVKVRVLDLSGRLLASYPLPLLEGEDRMSLVELLPVGRVLYAARRGSSRIHRISLDTGEALPPLEVYAPVRGLALWRRTP” the protein production was “failed”.

In the case of “MSNFFSVRIETLGCRLNQVESEALAVRFAECGFDVFSKEAETSILPVKLCIVNTCTVTGKAEQKARRLIRLLLKEHEESVILVTGCYAELEADSIEKINKRIIAFSGKKKDELDGLPQFLKDSCLKNKDLKEDTVNLKKNLLIFRNEIYAKEDQQDKSFLLKETERRKSMFKLSSPVFVFHSRASLKIQDGCNNACAYCRIRLARGTSVSLPAEEAVRRIVQIEKNGAAEVVLSGVNLSQYRDETYGGFANLLAKLLENTKKIRLRISSMYPECVDDGILEIVANKRICPHFHLSIQSGSDKILKAMNRPYREADIRMAINNLRKAKDNPFIGCDIITGFPSETEEDFLQTFKMCEDLKIPGIHVFPFSARPGTKAFSMRPKVPEREAGRRASLLSELSGKNYQSYLASCNGKLFFGVIEKPQNNEDLRIVTENYLSLPLVVNKKAENYKGGEGLFVVIKDGNAYLAD”, the protein production is reported as “failed”.

For “MGCAGSTQSQADGSVKKIRKPKPWKHTQPITKAELMKLREEFWDTAPHYGGRKEIWDALRAAAEADISLAQAIVDSAGVIVQNTDLTVCYDERGAKYELPKYVLSEPTNLEEEN”, the protein production was “failed”.

In the case of “NKYNKIANELIKIIGEDNIISITHCATRLRVMVKDREIINDKKVEKVDEVKGVFFTSGQYQIILGTGIVNKVYAEVEKMGLKTLSKKEQDEL”, the protein production is reported as “not failed”.

Reference: a protein production outcome set (Wang et al. 2014)
